Measurements as given in publication PMC4653032.

What was measured:
Conditions in all cases: glycan lost; control: wild-type CD133
[1] = immunofluorescence with ER dye, HEK293T
[2] = anti-CD133 western blot, HEK293T lysates
[3] = surface flow cytometry, HEK293T and HepG2

B1: CD133 (prominin-1): N206Q (protein)
parent chain: MALVLGSLLLLGLCGNSFSGGQPSSTDAPKAWNYELPATNYETQDSHKAGPIGILFELVHIFLYVVQPRDFPEDTLRKFLQKAYESKIDYDKPETVILGLKIVYYEAGIILCCVLGLLFIILMPLVGYFFCMCRCCNKCGGEMHQRQKENGPFLRKCFAISLLVICIIISIGIFYGFVANHQVRTRIKRSRKLADSNFKDLRTLLNETPEQIKYILAQYNTTKDKAFTDLNSINSVLGGGILDRLRPNIIPVLDEIKSMATAIKETKEALENMNSTLKSLHQQSTQLSSSLTSVKTSLRSSLNDPLCLVHPSSETCNSIRLSLSQLNSNPELRQLPPVDAELDNVNNVLRTDLDGLVQQGYQSLNDIPDRVQRQTTTVVAGIKRVLNSIGSDIDNVTQRLPIQDILSAFSVYVNNTESYIHRNLPTLEEYDSYWWLGGLVICSLLTLIVIFYYLGLLCGVCGYDRHATPTTRGCVSNTGGVFLMVGVGLSFLFCWILMIIVVLTFVFGANVEKLICEPYTSKELFRVLDTPYLLNEDWEYYLSGKLFNKSKMKLTFEQVYSDCKKNRGTYGTLHLQNSFNISEHLNINEHTGSISSELESLKVNLNIFLLGAAGRKNLQDFAACGIDRMNYDSYLAQTGKSPAGVNLLSFAYDLEAKANSLPPGNLRNSLKRDAQTIKTIHQQRVLPIEQSLSTLYQSVKILQRTGNGLLERVTRILASLDFAQNFITNNTSSVIIEETKKYGRTIIGYFEHYLQWIEFSISEKVASCKPVATALDTAVDVFLCSYIIDPLNLFWFGIGKATVFLLPALIFAVKLAKYYRRMDSEDVYDDVETIPMKNMENGNNGYHKDHVYGIHNPVMTSPSQH
no change: localisation_or_trafficking [1] | expression_or_secretion [2] | localisation_or_trafficking [3]

B2: CD133 (prominin-1): N395Q (protein)
parent chain: MALVLGSLLLLGLCGNSFSGGQPSSTDAPKAWNYELPATNYETQDSHKAGPIGILFELVHIFLYVVQPRDFPEDTLRKFLQKAYESKIDYDKPETVILGLKIVYYEAGIILCCVLGLLFIILMPLVGYFFCMCRCCNKCGGEMHQRQKENGPFLRKCFAISLLVICIIISIGIFYGFVANHQVRTRIKRSRKLADSNFKDLRTLLNETPEQIKYILAQYNTTKDKAFTDLNSINSVLGGGILDRLRPNIIPVLDEIKSMATAIKETKEALENMNSTLKSLHQQSTQLSSSLTSVKTSLRSSLNDPLCLVHPSSETCNSIRLSLSQLNSNPELRQLPPVDAELDNVNNVLRTDLDGLVQQGYQSLNDIPDRVQRQTTTVVAGIKRVLNSIGSDIDNVTQRLPIQDILSAFSVYVNNTESYIHRNLPTLEEYDSYWWLGGLVICSLLTLIVIFYYLGLLCGVCGYDRHATPTTRGCVSNTGGVFLMVGVGLSFLFCWILMIIVVLTFVFGANVEKLICEPYTSKELFRVLDTPYLLNEDWEYYLSGKLFNKSKMKLTFEQVYSDCKKNRGTYGTLHLQNSFNISEHLNINEHTGSISSELESLKVNLNIFLLGAAGRKNLQDFAACGIDRMNYDSYLAQTGKSPAGVNLLSFAYDLEAKANSLPPGNLRNSLKRDAQTIKTIHQQRVLPIEQSLSTLYQSVKILQRTGNGLLERVTRILASLDFAQNFITNNTSSVIIEETKKYGRTIIGYFEHYLQWIEFSISEKVASCKPVATALDTAVDVFLCSYIIDPLNLFWFGIGKATVFLLPALIFAVKLAKYYRRMDSEDVYDDVETIPMKNMENGNNGYHKDHVYGIHNPVMTSPSQH
no change: localisation_or_trafficking [1] | expression_or_secretion [2] | localisation_or_trafficking [3]

B3: CD133 (prominin-1): N414Q (protein)
parent chain: MALVLGSLLLLGLCGNSFSGGQPSSTDAPKAWNYELPATNYETQDSHKAGPIGILFELVHIFLYVVQPRDFPEDTLRKFLQKAYESKIDYDKPETVILGLKIVYYEAGIILCCVLGLLFIILMPLVGYFFCMCRCCNKCGGEMHQRQKENGPFLRKCFAISLLVICIIISIGIFYGFVANHQVRTRIKRSRKLADSNFKDLRTLLNETPEQIKYILAQYNTTKDKAFTDLNSINSVLGGGILDRLRPNIIPVLDEIKSMATAIKETKEALENMNSTLKSLHQQSTQLSSSLTSVKTSLRSSLNDPLCLVHPSSETCNSIRLSLSQLNSNPELRQLPPVDAELDNVNNVLRTDLDGLVQQGYQSLNDIPDRVQRQTTTVVAGIKRVLNSIGSDIDNVTQRLPIQDILSAFSVYVNNTESYIHRNLPTLEEYDSYWWLGGLVICSLLTLIVIFYYLGLLCGVCGYDRHATPTTRGCVSNTGGVFLMVGVGLSFLFCWILMIIVVLTFVFGANVEKLICEPYTSKELFRVLDTPYLLNEDWEYYLSGKLFNKSKMKLTFEQVYSDCKKNRGTYGTLHLQNSFNISEHLNINEHTGSISSELESLKVNLNIFLLGAAGRKNLQDFAACGIDRMNYDSYLAQTGKSPAGVNLLSFAYDLEAKANSLPPGNLRNSLKRDAQTIKTIHQQRVLPIEQSLSTLYQSVKILQRTGNGLLERVTRILASLDFAQNFITNNTSSVIIEETKKYGRTIIGYFEHYLQWIEFSISEKVASCKPVATALDTAVDVFLCSYIIDPLNLFWFGIGKATVFLLPALIFAVKLAKYYRRMDSEDVYDDVETIPMKNMENGNNGYHKDHVYGIHNPVMTSPSQH
no change: localisation_or_trafficking [1] | expression_or_secretion [2] | localisation_or_trafficking [3]

B4: CD133 (prominin-1): N580Q (protein)
parent chain: MALVLGSLLLLGLCGNSFSGGQPSSTDAPKAWNYELPATNYETQDSHKAGPIGILFELVHIFLYVVQPRDFPEDTLRKFLQKAYESKIDYDKPETVILGLKIVYYEAGIILCCVLGLLFIILMPLVGYFFCMCRCCNKCGGEMHQRQKENGPFLRKCFAISLLVICIIISIGIFYGFVANHQVRTRIKRSRKLADSNFKDLRTLLNETPEQIKYILAQYNTTKDKAFTDLNSINSVLGGGILDRLRPNIIPVLDEIKSMATAIKETKEALENMNSTLKSLHQQSTQLSSSLTSVKTSLRSSLNDPLCLVHPSSETCNSIRLSLSQLNSNPELRQLPPVDAELDNVNNVLRTDLDGLVQQGYQSLNDIPDRVQRQTTTVVAGIKRVLNSIGSDIDNVTQRLPIQDILSAFSVYVNNTESYIHRNLPTLEEYDSYWWLGGLVICSLLTLIVIFYYLGLLCGVCGYDRHATPTTRGCVSNTGGVFLMVGVGLSFLFCWILMIIVVLTFVFGANVEKLICEPYTSKELFRVLDTPYLLNEDWEYYLSGKLFNKSKMKLTFEQVYSDCKKNRGTYGTLHLQNSFNISEHLNINEHTGSISSELESLKVNLNIFLLGAAGRKNLQDFAACGIDRMNYDSYLAQTGKSPAGVNLLSFAYDLEAKANSLPPGNLRNSLKRDAQTIKTIHQQRVLPIEQSLSTLYQSVKILQRTGNGLLERVTRILASLDFAQNFITNNTSSVIIEETKKYGRTIIGYFEHYLQWIEFSISEKVASCKPVATALDTAVDVFLCSYIIDPLNLFWFGIGKATVFLLPALIFAVKLAKYYRRMDSEDVYDDVETIPMKNMENGNNGYHKDHVYGIHNPVMTSPSQH
no change: localisation_or_trafficking [1] | expression_or_secretion [2] | localisation_or_trafficking [3]

B5: CD133 (prominin-1): N274Q (protein)
parent chain: MALVLGSLLLLGLCGNSFSGGQPSSTDAPKAWNYELPATNYETQDSHKAGPIGILFELVHIFLYVVQPRDFPEDTLRKFLQKAYESKIDYDKPETVILGLKIVYYEAGIILCCVLGLLFIILMPLVGYFFCMCRCCNKCGGEMHQRQKENGPFLRKCFAISLLVICIIISIGIFYGFVANHQVRTRIKRSRKLADSNFKDLRTLLNETPEQIKYILAQYNTTKDKAFTDLNSINSVLGGGILDRLRPNIIPVLDEIKSMATAIKETKEALENMNSTLKSLHQQSTQLSSSLTSVKTSLRSSLNDPLCLVHPSSETCNSIRLSLSQLNSNPELRQLPPVDAELDNVNNVLRTDLDGLVQQGYQSLNDIPDRVQRQTTTVVAGIKRVLNSIGSDIDNVTQRLPIQDILSAFSVYVNNTESYIHRNLPTLEEYDSYWWLGGLVICSLLTLIVIFYYLGLLCGVCGYDRHATPTTRGCVSNTGGVFLMVGVGLSFLFCWILMIIVVLTFVFGANVEKLICEPYTSKELFRVLDTPYLLNEDWEYYLSGKLFNKSKMKLTFEQVYSDCKKNRGTYGTLHLQNSFNISEHLNINEHTGSISSELESLKVNLNIFLLGAAGRKNLQDFAACGIDRMNYDSYLAQTGKSPAGVNLLSFAYDLEAKANSLPPGNLRNSLKRDAQTIKTIHQQRVLPIEQSLSTLYQSVKILQRTGNGLLERVTRILASLDFAQNFITNNTSSVIIEETKKYGRTIIGYFEHYLQWIEFSISEKVASCKPVATALDTAVDVFLCSYIIDPLNLFWFGIGKATVFLLPALIFAVKLAKYYRRMDSEDVYDDVETIPMKNMENGNNGYHKDHVYGIHNPVMTSPSQH
no change: localisation_or_trafficking [1] | expression_or_secretion [2] | localisation_or_trafficking [3]

B6: CD133 (prominin-1): N220Q (protein)
parent chain: MALVLGSLLLLGLCGNSFSGGQPSSTDAPKAWNYELPATNYETQDSHKAGPIGILFELVHIFLYVVQPRDFPEDTLRKFLQKAYESKIDYDKPETVILGLKIVYYEAGIILCCVLGLLFIILMPLVGYFFCMCRCCNKCGGEMHQRQKENGPFLRKCFAISLLVICIIISIGIFYGFVANHQVRTRIKRSRKLADSNFKDLRTLLNETPEQIKYILAQYNTTKDKAFTDLNSINSVLGGGILDRLRPNIIPVLDEIKSMATAIKETKEALENMNSTLKSLHQQSTQLSSSLTSVKTSLRSSLNDPLCLVHPSSETCNSIRLSLSQLNSNPELRQLPPVDAELDNVNNVLRTDLDGLVQQGYQSLNDIPDRVQRQTTTVVAGIKRVLNSIGSDIDNVTQRLPIQDILSAFSVYVNNTESYIHRNLPTLEEYDSYWWLGGLVICSLLTLIVIFYYLGLLCGVCGYDRHATPTTRGCVSNTGGVFLMVGVGLSFLFCWILMIIVVLTFVFGANVEKLICEPYTSKELFRVLDTPYLLNEDWEYYLSGKLFNKSKMKLTFEQVYSDCKKNRGTYGTLHLQNSFNISEHLNINEHTGSISSELESLKVNLNIFLLGAAGRKNLQDFAACGIDRMNYDSYLAQTGKSPAGVNLLSFAYDLEAKANSLPPGNLRNSLKRDAQTIKTIHQQRVLPIEQSLSTLYQSVKILQRTGNGLLERVTRILASLDFAQNFITNNTSSVIIEETKKYGRTIIGYFEHYLQWIEFSISEKVASCKPVATALDTAVDVFLCSYIIDPLNLFWFGIGKATVFLLPALIFAVKLAKYYRRMDSEDVYDDVETIPMKNMENGNNGYHKDHVYGIHNPVMTSPSQH
no change: localisation_or_trafficking [1] | expression_or_secretion [2] | localisation_or_trafficking [3]
